# Measured values from paper PMC6179307 (2018).
# B1: RPT-6::VC155 [C. elegans] / ELT-2::VN173 [C. elegans] (parent complex)
# chain 1: MAPPASTASSADPSKPTAQKLTEESDEKTLRKYFSTKVDDAQQKVADKSQNVRRLQAQRNELNTKVRMLKEELQQLHEQGSYVGEVSKAMDKKKVLVKVHPEGKYVVDVDKSIDINSLNTGARVALRADSYALHKLLPNKVDPLVSLMMVEKVPDSTYEMVGGLDKQIKEIKEVIELPVKHPELFDALGIAQPKGVLLFGPPGTGKTLLARAVAHHTECTFIRVSGSELVQKFIGEGARMVRELFVMAREHAPSIIFMDEIDSIGSSRVEGSSGGDSEVQRTMLELLNQLDGFEATKNIKVIMATNRIDILDPALLRPGRIDRKIEFPAPDEKARADILKIHSRKMNLMRGINMAKIAEQIPGASGAEVKSVCTEAGMFALRERRIHVTQEDFEMAVGKVMQKDSEKNMSIKKLWK
# chain 2: MDNNYNDNVNGWAEMEPSQPMGGLRLPTQNMDPPEQNNESQLSELPRMKIDNDYASPIERQSVITSGTNNYEPKVETVTSFFHTGIDYSNFGMLDQTTMQPFYPLYSGIPVNTLGTFSGYTNSIYDKPSLYDPSIPTINIPSTYPTVAPTYECVKCSQSCGAGMKAVNGGMMCVNCSTPKTTYSPPVAYSTSLGQPPILEIPSEQPTAKIAKQSSKKSSSSNRGSNGSASRRQGLVCSNCNGTNTTLWRRNAEGDPVCNACGLYFKLHHIPRPTSMKKEGALQTRKRKSKSGDSSTPSTSRARERKFERASSSTEKAQRSSNRRAGSAKADRELSTAAVAAATATYVSHADLYPVSSAAVTLPDQTYSNYYQWNTAATAGLMMVPNDQNYVYAATNYQTGLRPADNIQVHVMPVQDDETKAAARDLEAVDGDS
# Variants of: B1
# Experiment: bimolecular fluorescence complementation (BiFC) in vivo, quantified with Copas Biosort; three independent experiments combined, minimum of 399 animals in each case; fluorescence observed twelve hours after heat shock; parent: 750; read off a plot
row,response [Fluorescence/TOF],Variant
1,~390,chain 1 K206R
